assay: soluble on expression in E. coli; label from the status in PepcDB or PDB records

Sequence	soluble on expression in E. coli
MGSDKIHHHHHHMSIAAEKISSEALFDLLEIFDNQPWMRDLHAELAELWNACETREEQHLLKFLLKKFFLLDAQKEKLALYGISKKIQEWGLNPASTWIVAAANKDEIDGSSAGLQKLKNKINPIEEWHSRFISNIPSASNKVKSGDTIILFDDFIGTGGKMIKKTAWLKRLVTKFDPRNLKFYYVSFSGMQFGLTSLAAETACTTYAHFIFTKAISEALPEQEALTLISAMKSIEERLAVRHKNKQLNDYSLGYEKSEALYCGQNDNCPNNVFPVFWWPSMKNGNNRKTLLKRAG	not soluble
MFSALRHRTAALALGVCFILPVHASSPKPGDFANTQARHIATFFPGRMTGTPAEMLSADYIRQQFQQMGYRSDIRTFNSRYIYTARDNRKNWHNVTGSTVIAAHEGKAPQQIIIMAHLDTYAPQSDADADANLGGLTLQGMDDNAAGLGVMLELAERLKNTPTEYGIRFVATSGEEEGKLGAENLLKRMSDTEKKNTLLVINLDNLIVGDKLYFNSGVKTPEAVRKLTRDRALAIARSHGIAATTNPGLNKNYPKGTGCCNDAEIFDKAGIAVLSVEATNWNLGNKDGYQQRAKTAAFPAGNSWHDVRLDNQQHIDKALPGRIERRCRDVMRIMLPLVKELAKAS	not soluble
MSLETVLVPVDFTIEKEDLLGCIGEFKNAGLKKVILLHVVDIHKSQGLAPMFERNAKKRIEDYTGFAEELGLETEALVVVGDIKRTISETADRKNVDAIIMGATAKGFIKGRFLGRTTEHIARSSKKILLVEKYDALKEGKEFYKNACRATFSRVLVPLDFSKESMKAIEQLQEFGGIVKEVLLLHVIDNIKDMDLLDEQREEAKGKLGRIKEQLTGIKSQYLVVEGIPSDEIVKFANIEEATMIMLTSRGKGDLIDLILGSTAESVLRKTIKPVLIIPASKEFDGEEGHHHHHH	soluble
MRILVTNDDGIQSKGIIVLAELLSEEHEVFVVAPDKERSATGHSITIHVPLWMKKVFISERVVAYSTTGTPADCVKLAYNVVMDKRVDLIVSGVNRGPNMGMDILHSGTVSGAMEGAMMNIPSIAISSANYESPDFEGAARFLIDFLKEFDFSLLDPFTMLNINVPAGEIKGWRFTRQSRRRWNDYFEERVSPFGEKYYWMMGEVIEDDDRDDVDYKAVREGYVSITPIHPFLTNEQCLKKLREVYD	soluble
TQDMELNINANITFQQNKLLSLSGMYNGELISAPEYKSLASLDGAGFHGGYNHIVYQVVGQPLGVFYLPRANGLVSDGNGGYTYDIADLNGGGVSLEDGEDRYVAGQAVPKTILGSNLSFRYKRFDISVQINGAFGHKIYNGTSLTYMNMNIFPDYNVMQEAPARNIKDQTATDYWLENGAYVNFDYVTLGWNVPIEKVQKLKKYVRSLRLAFTVNNLATISGYSGLSPMINSSTVNSTLGLDDKRGYPLARTYTLGLSINF	not soluble
NLRSIIESPSFKNAESKLTVAMGYRINNEPLLMDIAKTPHALIAGATGSGKSVCINSILMSLLYKNHPEELRLLLIDPKMVELAPYNGLPHLVAPVITDVKAATQSLKWAVEEMERRYKLFAHYHVRNITAFNKKAPYDERMPKIVIVIDELADLMMMAPQEVEQSIARIAQKARACGIHMLVATQRPSV	not soluble
MGSDKIHHHHHHMSNSELYYEELTDLSVRIALGIKNRTEPLDELSQAMTQLSQTNAIKGNAANAMKAYINEVHMTLIQTLELLLNNYEMALGKYVKGYLEVDSDESFKLIKEDFDAHKNNLSSHQSDFTSIGNKLKAISDEAEDIISLRGAGSKRLFNVAKDMGTMKEIVSNLNNKWNDYEQSDPGFNQVQDLIAQTTSLLKSTLSVPRGYSYSPGSFSKLISKDFVNAFEVNANYAQNPDNQKAFKANWNSISKNYTTDQKRMAEEAKEEAQKDGRIGLIWDAIASCCRNSACCDRSWSGFWCCSHCRWY	not soluble
MMDLELPPPGLPSQQDMDLIDILWRQDIDLGVSREVFDFSQRRKEYELEKQKKLEKERQEQLQKEQEKAFFAQLQLDEETGEFLPIQPAQHIQSETSGSANYSQVAHIPKSDALYFDDCMQLLAQTFPFVDDNEVSSATFQSLVPDIPGHIESPVFIATNQAQSPETSVAQVAPVDLDGMQQDIEQVWEELLSIPELQCLNIENDKLVETTMVPSPEAKLTEVDNYHFYSSIPSMEKEVGNCSPHFLNAFEDSFSSILSTEDPNQLTVNSLNSDATVNTDFGDEFYSAFIAEPSISNSMPSPATLSHSLSELLNGPIDVSDLSLCKAFNQNHPESTAEFNDSDSGISLNTSPSVASPEHSVESSSYGDTLLGLSDSEVEELDSAPGSVKQNGPKTPVHSSGDMVQPLSPSQGQSTHVHDAQCENTPEKELPVSPGHRKTPFTKDKHSSRLEAHLTRDELRAKALHIPFPVEKIINLPVVDFNEMMSKEQFNEAQLALIRDIRRRGKNKVAAQNCRKRKLENIVELEQDLDHLKDEKEKLLKEKGENDKSLHLLKKQLSTLYLEVFSMLRDEDGKPYSPSEYSLQQTRDGNVFLVPKSKKPDVKKN	not soluble
MAHHHHHHMGFLDGKRILLTGLLSNRSIAYGIAKACKREGAELAFTYVGDRFKDRITEFAAEFGSELVFPCDVADDAQIDALFASLKTHWDSLDGLVHSIGFAPREAIAGDFLDGLTRENFRIAHDISAYSFPALAKAALPMLSDDASLLTLSYLGAERAIPNYNTMGLAKAALEASVRYLAVSLGAKGVRVNAISAGPIKTLAASGIKSFGKILDFVESNSPLKRNVTIEQVGNAGAFLLSDLASGVTAEVMHVDSGFNAVVGGMAGLEE	soluble
MTMQLIGKKSFPRKANRGAKTRNPSIYWNYRQFICSSSSGYPIPMNFSDEFDFDEDRVYEMLCSDDENTTDYSDEIIAIIDANMRSLWIFQL	not soluble
MCDCLSIILLVKMKKIYLKFVDFWDGFDTISNFIVDALSIQYEVVLSNEPDYLFYSCFGTSHLEYDCIKIMFIGENIVPDFNVCDYAIGFNYIDFGDRYLRLPLYAIYDGFSNLQNKKIDVNKALDRKFCSIVVSNNKWADPIRETFFKLLSSYKKVDSGGRAWNNIGGPVDNKLDFISQYKFNIAFENSRVLGYTTEKIMEPMQVNSIPVYWGNPLVGKDFNVDSFVNAHDFDSLERLVEYIIELDSSKDKYLEMLEKPWLLDKTYLDWKQLLLNFINNIMMKSYKDAKYLVNYGHAGKYRNEQRFWGRCERKFKLQRIIEYYSQLFDRKLEHHHHHH	not soluble
HRCVALCIETRPDYCGEKEINQMLKLGATRVELGVQTIYNEILEFCKRGHTVEDTIKATQLLKDSGLKVSYHLMPGMPGSDMEMDKKMFKEIFENPDFKPDMVKIYPCLVIEGTELYEMWKRGEYKPYREEEAIEIISYAKSIMPKWV	not soluble
PSTVPIMHQVSATMRSITLSWPQPEQPNGIILDYEIRYYEKEHNEFNSSMARSQTNTARIDGLRPGMVYVVQVRARTVAGYGKFSGKMCFQTLTD	soluble
MSVSSEISASKLPYVRIPGSKPVPRLLKWTIFKCSFMKIRTIGLHHPDGRLYFFEFCQGKDTFVPHVCSACLPIITEKDLFPDYIVWAEEIEDYVIFAFSSMSNKMEQFVYSFETRRFVEVDLPELVYNRGDATTGDIVAALYGENETIVIERDENGAMLIRSFVHKDNSRKPVNTLVMQNIEKNGLQVGKDEEVTDISNEFGYLDYVETLPELKIKTCSANRTSIHVFSKKTGRYLKYHYVINTGSFINTSNLDCSNCNSVTSEKYLLPEYSVYSKALDARVIHCTNNLTSDIEQYTFNPDTNAFEQVYCKELVYDPNRFNRASLAAYVFPENVANNGTVIISRDVYEVIQKEKYSIVTDEYVVLPAAPVKTFAVRIQEEKQKKLDEEEQQKVLKTQELEKQKDGQIVIMELEMKEMTTLLEEKDTRIKMHVEKHRDKECELELVRRKLDDCVVRMQGAFERDIKLEEAKVQASREAKKQYENLMTILGEKE	not soluble
MAALFQEASSCPVCSDYLEKPMSLECGCTVCLKCINSLQKEPHGEDLLCCCCSMVSQRNKIRPNRQLERLVSHIKELEPKMKKILQMNPRMRKFQVDMTLDADTANNFLLISDDLRSVRSGLITQNRQDLAERFDVSVCILGSPRFTCGRHYWEVDVGTSTEWDLGVCRESVHCKGKIQLTTELGFWTVSLRDGSRLSASTVPLTFLLVDRKLQRVGIFLDMGMQNVSFFDAESGSHVYTFRSVSAEEPLRPFLAPSIPPNGDQGVLSICPLMNSGTTDAPVRPGEAK	soluble
MSLENLNIENWPVDRLHHSEHATRRNEDAIPRMVDALRMFGFRIPLLVTGAGEVVDGHLRLKAALVMGMASVPVIVVDDMTPTQVRTFRLLINRSATWAEWDDEALRVELASLRDYGVDVTMTGFADAELDAFLQGVSLAGESDPDMVPPLPETPTSRPGDVWNMGGHRLLCGDSTSVEDVVRLMAGEQADMLWTDPPYNVDYSGKAGKIRNDKMSPEDFDAFLLRLLSRSYEALADGAAAYVAHSEAGGGTAFRKAFAHAGYKLASCLIWRKHQLVLGRGDYHWQHEPILYGWKPTGKHRWYGNRKHTTLLEHFAGQTVLPAGEGVWQVATGDAVLLIRGQDVTVEEVSTSILAVAKPARSELHPTMKPVALVERMVANSSPRGGLVLDPCGGSGTTLIACERMGRRCNTMELDPRFADVIVRRWEEVTGKTAVLEGGASFADVPLAREVAHEGHHHHHH	soluble
MGSDKIHHHHHHMDLNALTLLVDILDAGNLSKAAQRLKMSRANVSYRLNQLEKSIGLQLVRRTTRRIEPTEIGLRLYEHGRRIQSELFAAREAVTTLGQDLQGRVRLSVPSGYGQLVMSNWLIAFKRLYPGIVLDVVFENRIEDLMRDEVDIAVRVMSEPPQNLVARDMGAVRYVACASPGFAATHGMPTELGQLFDAPVITSTVVGRQLRVAAYLGDERHEVLLEPTLISENFLFLRQAILAGLGVGIVPDYVVHDDVRRGAVVTTLDAYRLSIFGTHMYMLYMPNRHHTRATSTFIDFMLEEARNAGRGG	not soluble
MGSDKIHHHHHHMNIFDILRDYLLVQVDKYNLNMDMISIVSKSLSSKEAIGNTKRKDFPIIVGKEIMLEADFKGAKGQAFTSTPSTFEGSLKDILSLDLHDNPHDRSLFIASLNAVMKYLGKTDRTIHCKNNEPEVCAKKFPEFIKMEFGNPKVAIIGYQPAIIDNIKDFFETRVLDLNPEFVDTIQYNVKIEDGIRDYEDVISWADLVICTGSTLCNNSIINFLSLNKPVYYYGTTIAGASNILGLKRLCFCSK	not soluble
MNPTTLADVDTVIINANILTLDRDCPHAQAIAFAAGRILALGTTQELSPLAGRAATVVDARGSTLLPGFIDSHSHLMFGGVVAQALDLTEAACLSDLLDMVRSRAQSTPEGEWIRGYGVAAGRLKEKRYPTRQELDQVSGGRPVWLAEDSFHASLVNSKAFRMLEIPLSTPGVELAADGSPTGAFLNDAANVPARQRVFGFISDDEARQMLQHVTQLGATRGVTTVHAFEGSRMSADRDIELLMRFRHELPIHVVPYYETFDVERAMQLGVSGVGGCGRNCLDGMPNIQTAAMVDPYCCSEERGSLFQESIKLHNFVIAAFERGMQVGMHAMGDAAIEQLLATYERAIEETGRTDLRPRIEHFHVPSRDHVRRAADLGVGLAVQPIFTHLWGGRDGIFFERLGERRYKRIDTYREILDSGAIASCGADLPVHPADPLRWIQLLVDNQIDRDQSVSMTEAIRMCTYNGAWLGFQESETGTLAVSKAADAVMLGRDPHQCMPHEIAAIPILKTLGGKLVFESSRPLEHHHHHH	not soluble
MGSDKIHHHHHHMRWFHKKGELARDGWQSVVDATTPGWEYTGIRIAELGSGESLELNDTGVERIFIPLQGSFDVAHHGQVTHLHGRKSVFDGPTDVLYLPTGQTATLSGQGRVAVAEAPTQEPKEWKYIAPAETPVELRGAGRSSRQVHNFGTPEALDAARLIVCEVITPGENWSSYPPHKHDEHIPGHESKLEEIYYFESAPSRVGGRAEAAEGAFGMFSTYSSPAGEIDINAMVYSGDIALVPFGYHGPAVAAPGYDLYYLNVMAGPDPERIWLINDDPAHAWVRDTWTGQAFDDRLPYENANKEG	not soluble
